Results as given in the supplement of paper PMC9170038.

Test system: MS2 coat protein
Assay: apparent KD of MS2 coat protein; designed switch direction (-1 OFF switch, 1 ON switch): -1; higher = weaker reporter binding
Outline: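 The apparent KD reported per design is the median over clusters of curve fits to normalised cluster fluorescence. The RNA switches were transcribed on Illumina chips by stalled E. coli RNA polymerase. SNAP-549-labelled MS2 coat protein was titrated from 0.7 or 1.5 nM, doubling up to 3 µM, in Tris-HCl pH 7.5 buffer containing KCl, MgCl2, BSA, DTT, tRNA and Tween-20, with no input, 200 uM small-molecule ligand, or an oligonucleotide input.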

[1] = input ligand: microRNA oligo, concentration not stated
[2] = Eterna round: R95, input ligand: FMN 200 uM
[3] = Eterna round: R95, input ligand: microRNA oligo, concentration not stated
[4] = Eterna round: R95, input ligand: none

Row | Sequence | apparent KD of MS2 coat protein (input ligand: FMN 200 uM) | apparent KD of MS2 coat protein [1] | apparent KD of MS2 coat protein (input ligand: none) | apparent KD of MS2 coat protein [2] | apparent KD of MS2 coat protein [3] | apparent KD of MS2 coat protein [4]
1 | ACAUGAGGAUCACCCAUGUGACAAUAAUGGCUGAUACAGAGACAGGAUAUUCGUGAAUAUCUAACGAAGAAGGGUCAUGACUGG [Deportation 69 - Jieux - Exclusion NG 3] (Eterna round: R96, puzzle: Exclusion NG 3) | 37.9 nM | 45.7 nM | 51.8 nM |  |  | 
2 | UAUUAGUAAGGAUAUCUCUGCAUGGACGAAAGUCCAUGCAGAGAGAAGGUACAUGAGGAUCACCCAUGUUCAUU [Mod of Fisker 17 - Jieux - Exclusion 4] (Eterna round: R97, puzzle: Exclusion 4) | 17.1 nM |  | 15 nM |  |  | 
3 | UCUUGCUGGCGAGGAUAUCCUGUGCGGUUCCGGCUCGUGUCUGUUACAUGAGGAUCACCCAUGUGGGAGAAGGUGUCUGUGGCC [Design 97] (Eterna round: R96, puzzle: Exclusion NG 2) | 18.6 nM | 16.7 nM | 21.9 nM |  |  | 
4 | GUAGCUUCGGCUACUACAAGCUUUUUGCUCGUCUUAUUAACAUGAGGAUCACCCAUGUCAAAGAGACCUCAUGUAUU [Sensor v3 - turn-off variant 2 - 5] (puzzle: Sensor v3, turn-off variant 2) |  |  |  | 420 nM | 28.2 nM | 462 nM
5 | CUUUGCACGCUGCGGUCCUACAUGAGGAUCACCCAUGUGGUCUGGUGGCGUGGGUCGCCGGACUUGGCUCGUCUUGG [salish99_S_TOV1_R5_042] (Eterna round: R97, puzzle: Sensor, turn-off variant 1) | 15.1 nM |  | 15.7 nM |  |  | 
6 | AACAAAACGCGAGGAUAUCGCCAACAUGAGGAUCACCCAUGUCACGGGUGCAAAUGUCUUCUAGGCGAGAAGGCGCAUCCAUAC [Diatza] (Eterna round: R96, puzzle: Exclusion NG 2) | 704 nM | 344 nM | 641 nM |  |  | 
7 | GGUACUAUCACCUGAGUGGUAGUGCAACAAGCUUGUGAUACAUGAGGAUCACCCAUGUCCUCAUUUGCUCGUCUUAU [JL-sv3-2.25 JL mod] (puzzle: Sensor v3, turn-off variant 2) |  |  |  | 209 nM | 1070 nM | 217 nM
8 | AAACGGUAAGGAUAUCGGGCAACGGACAUGAGGAUCACCCAUGUGAACCUGCGUAUCCUCCGAGAAGGUACAAAAG [Diinbibe] (Eterna round: R97, puzzle: Exclusion 5) | 20 nM |  | 10.9 nM |  |  | 
9 | ACAGCGUGAGGAUAUACAUGAGGAUCACCCAUGUAUGGCAGGUUAUCCUGUCGUAAGUGUAGAAGGCACGCUGU [Exclusion 3 - Oddities v.4 ( A small slide from ms2 to fmn)] (puzzle: Exclusion 3) |  |  |  |  | 18.8 nM | 
10 | CUCUACGGAGGAUAUACAACCGGUUAUCCCUGUGGAACGCCACAUGAGGAUCACCCAUGUAGAAGGCCGAGAAA [Ceones] (puzzle: Exclusion 2) |  |  |  | 15.2 nM | 211 nM | 218 nM
11 | GGUGCGUAUGUGAGGAUAUGCUGGUCCUUGGAUCAGCAGAAGGCACAUGAGGAUCACCCAUGUGGUGUCGUACU [salish99_Bmod_Ex4_013] (puzzle: Brourd's mod of Exclusion 4) |  |  |  |  | 266 nM | 
12 | AGUACUAACACGAAAGUGUUAGUACAAUAAGCUUGUGAUACAUGAGGAUCACCCAUGUCCUCAUAAGCUCGUCUUAU [salish99_TOv2_r3_045] (puzzle: Sensor v3, turn-off variant 2) |  |  |  | 24.7 nM | 652 nM | 21.9 nM
13 | AUCGUGCAGCUUUGCUGUACGAGUACAUGAGGAUCACCCAUGUAGGAUAUGGUACGCUUUGCGUGCUAGAAGGAUAUGAGAUUA [EX ENG3 1.48] (Eterna round: R96, puzzle: Exclusion NG 3) | 40.2 nM | 28.5 nM | 31 nM |  |  | 
14 | UACAUGAGGAUCACCCAUGUUUUGUCGUGUAUGGUACCCGUCUAGGAUAUCGUGUUAUUGGACCGCGAGAAGGAGAGUAUCAAU [Excl-NG3-LRO03] (Eterna round: R96, puzzle: Exclusion NG 3) | 26.4 nM | 20.2 nM | 33.5 nM |  |  | 
15 | GUCUAGAGAGGAUAUAUUUACAGUGUACGUCGGAUGAUCGCACUUGAGGAUCACCCAAGUAGAAGGCUCGAGGG [EX2 #31] (Eterna round: R97, puzzle: Exclusion 2) | 875 nM |  | 1850 nM |  |  | 
16 | UAGGCUUUAGGAUAUGCGUGUUGUAGUCGGCGAUGUGGUUCACAUGAGGAUCACCCAUGUAGAAGGAAAGUUUA [-17.2, -17 kcal, 26% A] (Eterna round: R97, puzzle: Exclusion 2) | 244 nM |  | 104 nM |  |  | 
17 | CCGCUGCAAGGAUAUACUUGCGGUGGUGUUCGAGUUCUUUUACUUGAGGAUCACCCAAGUAGAAGGUGCAAAAC [jl-ex2.4.54 ViennaUCT mod] (Eterna round: R97, puzzle: Exclusion 2) | 17.3 nM |  | 16.2 nM |  |  | 

Row | Sequence | apparent KD of MS2 coat protein (input ligand: FMN 200 uM) | apparent KD of MS2 coat protein [1] | apparent KD of MS2 coat protein (input ligand: none) | apparent KD of MS2 coat protein [2] | apparent KD of MS2 coat protein [3] | apparent KD of MS2 coat protein [4]
18 | UGUUGUUACGCAGGAUAUGUAUGAGGAUCACCCAUAAGAGUUGAUGUACCAUGAGGAUCACCCAUGUAGAAGGGCGGGUUAACA [pwkr exNG2 2xF5 1xFMN.9] (Eterna round: R96, puzzle: Exclusion NG 2) | 365 nM | 194 nM | 234 nM |  |  | 
19 | GGAGCUGGAGGAUAUACAAGAUCGAAAGAUCAAAGAUCCGUACAUGAGGAUCACCCAUGUAGAAGGCCAGCUCC (Eterna round: R97, puzzle: Exclusion 2) | 763 nM |  | 40.4 nM |  |  | 
20 | UACAUGAGGAUCACCCAUGUUUUGUCGUGUAUGGUAUUUAUCUAGGAUAUCAUUAUAUUUAGUUAUGAGAAGGAGAAUAUUAAU [JMF's solution 82] (Eterna round: R96, puzzle: Exclusion NG 3) | 28.1 nM | 23.6 nM | 44.6 nM |  |  | 
21 | ACCAAAGCAGUAGGAUAUACGCACAUGAGGAUCACCCAUGUAGCACGUCUCCAGACACCGAAUGCGUAGAAGGACUGCGCGCAA [Eternabot solution 3] (Eterna round: R96, puzzle: Exclusion NG 2) | 7.86 nM | 4.69 nM | 17 nM |  |  | 
22 | AAGUAUAGAGGAUAUAGUAGUUACAACAUGAGGAUCACCCAUGUUCUUCAUAACGUAGAUCUAGAAGGCUGAUAAA [EX-5 Malc#29] (puzzle: Exclusion 5) |  |  |  | 145 nM | 114 nM | 140 nM
23 | AACCUGAGGCUUUGCUUUAGGUGUACAUGAGGAUCACCCAUGUAGGAUAUGGUAGGCUUUGCUUACCAGAAGGACAUUAUGAUG [JL ENG3 1.17] (Eterna round: R96, puzzle: Exclusion NG 3) | 75.1 nM | 44.3 nM | 52.8 nM |  |  | 
24 | AAUUCACAUGAGGAUCACCCAUGUCAGGAUAUGGUUUUAUUUUUUUCUUUUCUUGAUUCCAGAAGGGACAGCUA (puzzle: Exclusion 1) |  |  |  |  | 70.8 nM | 
25 | ACUAGAUGAGGAUAUGCACAUUUUAGUGUUCCUCUAGAUUAACAUGAGGAUCACCCAUGUAGAAGGCGUCAUUU [Exclusion 2 - 13] (Eterna round: R96, puzzle: Exclusion 2) | 119 nM | 59.1 nM | 84.2 nM |  |  | 
26 | GCUUGCUUUUUGGUUUUCAACAUGAGGAUCACCCAUGUUCGUCUUGUGCUCGGGCUUGGGCGGUGUCCGGGUUUGGG [A 9%, less GC] (Eterna round: R97, puzzle: Sensor, turn-off variant 1) | 55.8 nM |  | 60.6 nM |  |  | 
27 | CUUAGCCUAAAAUCACGCAAGCCUUUUGCUUGUCUUAAGACAUGAGGAUCACCCAUGUCCGGGCUGAACUUAUGGAA [Geanon] (puzzle: Sensor v3, turn-off variant 2) |  |  |  | 17.4 nM | 33.3 nM | 16.6 nM
28 | AAAUAGCUAGAGGAUAUUGGAUAGGAUUUAGUACGAGAAGGUUAGACAUGAGGAUCACCCAUGUUGUGUUGGGA [EX6 #16] (Eterna round: R97, puzzle: Exclusion 6) | 49.2 nM |  | 52.9 nM |  |  | 
29 | UCCUUACAUGAGGAUCACCCAUGUGAGGAUAUGAGGGUUGAUUUAAAUGGGUUGAUUUUCAGAAGGCACAUGAA [JR_Ex1_Sub062] (Eterna round: R97, puzzle: Exclusion 1) | 46.2 nM |  | 50.9 nM |  |  | 
30 | AUAAAUCAUGUAGGAUAUGCGUGGCGAAGCUAUGCAGAAGGACAUGAGGAUCACCCAUGUGCUUGCGUCUGCGUACAGAUGCUA [Mat - Exclusion NG 1 - Mod of JL - D5] (Eterna round: R96, puzzle: Exclusion NG 1) | 330 nM | 37.7 nM | 51.7 nM |  |  | 
31 | CUGUACUGAGGAUAUACAUGAGGAUCACCCAUGUGUCCCAGCUAGGAAACUAGCAAAGGUAGAAGGCAGUACAG [Mat - Exclusion 3 - Eli Mod - D57] (Eterna round: R97, puzzle: Exclusion 3) | 302 nM |  | 22.6 nM |  |  | 
32 | CGUUUGCAUUUUGCUCGUCACAUGAGGAUCACCCAUGUUAUGCUACAGUACGCUAGGAUCGGCGUCUGAGGGCUUUA [Eternabot (Original) Solution 1] (Eterna round: R97, puzzle: Sensor, turn-off variant 1) | 25.2 nM |  | 27.7 nM |  |  | 
33 | AAGUACCGUCACGAUAGUGAUGGUACAACAAGCAGUGAUACAUGAGGAUCACCCAUGUCCUCAAUUGCUCGUCUUAU [Sensor 3 - 75] (puzzle: Sensor v3, turn-off variant 2) |  |  |  | 133 nM | 307 nM | 157 nM
